Laboratory results from patent US20160185837A1 (Medimmune Limited, priority 2013, published 2016).
Where two headings read alike, the source gives them in different places.

Legend:
Format in all cases: cell-based
[1] = target: T1, human GLP-1 receptor (hGLP-1r) (Homo sapiens, UniProt P43220); experiment: BSA-cAMP assay, cells expressing human GLP-1 receptor; details: BSA-cAMP assay
T1 construct: expressed in transfected cells
Method: (§1) One basic cAMP assays was performed, differing in the medium used for the assay, the “BSA-cAMP assay”:
(§2) BSA-based assay medium: 0.1% bovine serum albumin (BSA) in
(§3) In certain aspects, the assay can also be carried out in medium supplemented with serum albumin that corresponds to the receptor being tested, e.g., human serum albumin for testing cAMP activity at hGIPr or hGLP-1r, rat serum albumin for testing cAMP activity at rGIPr or rGLP-1r, and so on. […] All sample dilutions were made in duplicate.
(§4) A frozen cryo-vial of cells expressing the receptor of interest was thawed rapidly in a water-bath, transferred to pre-warmed assay media and spun at 240×g for 5 minutes. Cells were re-suspended in assay buffer at an optimized concentration (e.g., hGLP-1r and hGIPr cells at 0.5×10^5 cells/ml).
(§5) To this, 5 μL cell suspension was added and the plates incubated at room temperature for 30 minutes.
(§6) cAMP levels were measured using a commercially available cAMP dynamic 2 HTRF kit (Cisbio, Cat #62AM4PEJ), following the two step protocol as per manufacturer's recommendations. In brief; anti-cAMP cryptate (donor fluorophore) and cAMP-d2 (acceptor fluorophore) were made up separately by diluting each 1/20 in conjugate & lysis buffer provided in the kit. 5 μL anti-cAMP cryptate was added to all wells of the assay plate, and 5 μL cAMP-d2 added to all wells except non-specific binding (NSB) wells, to which conjugate and lysis buffer was added. […] Data was transformed to % Delta F as described in manufacturer's guidelines and then transformed to percent activation of maximal native agonist response and analysed by 4-parameter logistic fit to determine EC50 values.
(§7) We used unconstrained 4 parameter logistic fit of data, curve mid-point to determine EC50. This was tested on two occasions, not two batches.

[2] = target: T2, human GIP receptor (hGIPr) (Homo sapiens, UniProt P48546); experiment: BSA-cAMP assay, cells expressing human GIP receptor; details: BSA-cAMP assay
T2 construct: expressed in transfected cells
T2 sequence (P48546 22-466): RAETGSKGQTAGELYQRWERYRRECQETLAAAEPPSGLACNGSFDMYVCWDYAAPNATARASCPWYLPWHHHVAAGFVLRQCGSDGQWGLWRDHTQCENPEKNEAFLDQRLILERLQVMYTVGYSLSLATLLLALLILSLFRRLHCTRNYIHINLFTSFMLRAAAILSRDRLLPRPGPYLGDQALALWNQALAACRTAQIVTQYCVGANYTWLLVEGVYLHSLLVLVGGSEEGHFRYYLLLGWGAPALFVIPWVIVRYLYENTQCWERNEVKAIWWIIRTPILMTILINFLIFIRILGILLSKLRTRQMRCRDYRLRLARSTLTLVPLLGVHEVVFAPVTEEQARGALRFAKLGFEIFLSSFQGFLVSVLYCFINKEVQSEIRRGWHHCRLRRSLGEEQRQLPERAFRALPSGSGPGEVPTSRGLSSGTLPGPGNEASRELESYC
Method: For human GIPr, two different lines were used, shown as “hGIPr” and “hGIPr (C3)” in Table 11.
as §1, §2, §3, §4, §5, §6, §7

[3] = target: T3, human glucagon receptor (GCGr) (Homo sapiens, UniProt P47871); experiment: BSA-cAMP assay, cells expressing human glucagon receptor
T3 construct: expressed in transfected cells; host or cells: HEK293s or CHO cells
Method: as §1, §2, §3, §4, §5, §6, §7

[4] = target: T4, mouse GLP-1 receptor (mGLP-1r) (Mus musculus, UniProt O35659); experiment: BSA-cAMP assay, cells expressing mouse GLP-1 receptor; details: BSA-cAMP assay
T4 construct: expressed in transfected cells; host or cells: HEK293s or CHO cells
T4 sequence (O35659 22-463): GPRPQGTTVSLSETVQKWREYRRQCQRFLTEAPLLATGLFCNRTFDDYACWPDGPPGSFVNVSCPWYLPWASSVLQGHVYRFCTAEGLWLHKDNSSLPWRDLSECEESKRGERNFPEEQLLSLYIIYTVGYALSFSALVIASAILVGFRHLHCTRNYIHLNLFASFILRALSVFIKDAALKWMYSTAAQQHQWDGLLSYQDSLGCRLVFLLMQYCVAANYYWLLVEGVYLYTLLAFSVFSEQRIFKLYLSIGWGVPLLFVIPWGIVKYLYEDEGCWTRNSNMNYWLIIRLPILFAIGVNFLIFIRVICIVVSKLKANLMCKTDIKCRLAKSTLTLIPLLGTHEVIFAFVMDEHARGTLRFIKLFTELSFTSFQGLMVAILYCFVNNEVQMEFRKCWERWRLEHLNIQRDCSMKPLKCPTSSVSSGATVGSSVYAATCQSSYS
Method: as §1, §2, §3, §4, §5, §6, §7
(§8) In order to be able to carry out in vivo studies in rodents, IP088 was tested for potency against the mouse receptors mGIPr and mGLP-1r as well as the rat receptors rGIPr and rGLP-1r, using cells expressing the respective receptors in the cAMP assay described above.

[5] = target: T5, mouse GIP receptor (mGIPr) (Mus musculus, UniProt Q0P543); experiment: BSA-cAMP assay, cells expressing mouse GIP receptor; details: BSA-cAMP assay
T5 construct: expressed in transfected cells; host or cells: HEK293s or CHO cells
T5 sequence (Q0P543 19-460): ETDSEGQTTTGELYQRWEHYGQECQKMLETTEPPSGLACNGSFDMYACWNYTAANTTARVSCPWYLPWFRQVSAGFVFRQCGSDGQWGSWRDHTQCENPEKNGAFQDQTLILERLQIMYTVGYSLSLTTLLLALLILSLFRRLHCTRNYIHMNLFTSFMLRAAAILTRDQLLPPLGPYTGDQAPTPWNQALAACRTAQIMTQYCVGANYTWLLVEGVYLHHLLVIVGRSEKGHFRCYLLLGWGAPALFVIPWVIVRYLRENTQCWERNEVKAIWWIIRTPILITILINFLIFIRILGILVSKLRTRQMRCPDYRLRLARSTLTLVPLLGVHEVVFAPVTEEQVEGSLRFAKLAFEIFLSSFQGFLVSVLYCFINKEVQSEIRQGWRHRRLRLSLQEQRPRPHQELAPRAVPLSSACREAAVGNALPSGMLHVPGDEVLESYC
Method: as §1, §2, §3, §4, §5, §6, §7, §8

[6] = target: T6, rat GLP-1 receptor (rGLP-1r) (Rattus norvegicus, UniProt P32301); experiment: BSA-cAMP assay, cells expressing rat GLP-1 receptor; details: BSA-cAMP assay
T6 construct: expressed in transfected cells; host or cells: HEK293s or CHO cells
T6 sequence (P32301 22-463): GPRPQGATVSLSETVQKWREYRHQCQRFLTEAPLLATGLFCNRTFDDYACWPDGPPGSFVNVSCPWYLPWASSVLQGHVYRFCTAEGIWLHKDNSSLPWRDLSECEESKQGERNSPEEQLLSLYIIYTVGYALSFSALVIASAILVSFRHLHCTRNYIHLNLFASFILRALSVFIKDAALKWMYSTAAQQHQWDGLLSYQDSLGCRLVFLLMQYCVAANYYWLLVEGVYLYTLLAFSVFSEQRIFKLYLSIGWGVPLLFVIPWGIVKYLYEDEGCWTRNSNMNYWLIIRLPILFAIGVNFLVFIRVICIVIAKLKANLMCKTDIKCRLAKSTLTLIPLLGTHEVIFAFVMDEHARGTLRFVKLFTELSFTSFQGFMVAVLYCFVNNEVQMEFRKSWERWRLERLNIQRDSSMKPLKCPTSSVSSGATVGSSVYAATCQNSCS
Method: as §1, §2, §3, §4, §5, §6, §7, §8

rat GIP receptor (rGIPr) = target: T7, rat GIP receptor (rGIPr) (Rattus norvegicus, UniProt P43219); experiment: BSA-cAMP assay, cells expressing rat GIP receptor; details: BSA-cAMP assay
T7 construct: expressed in transfected cells; host or cells: HEK293s or CHO cells
T7 sequence (P43219 19-455): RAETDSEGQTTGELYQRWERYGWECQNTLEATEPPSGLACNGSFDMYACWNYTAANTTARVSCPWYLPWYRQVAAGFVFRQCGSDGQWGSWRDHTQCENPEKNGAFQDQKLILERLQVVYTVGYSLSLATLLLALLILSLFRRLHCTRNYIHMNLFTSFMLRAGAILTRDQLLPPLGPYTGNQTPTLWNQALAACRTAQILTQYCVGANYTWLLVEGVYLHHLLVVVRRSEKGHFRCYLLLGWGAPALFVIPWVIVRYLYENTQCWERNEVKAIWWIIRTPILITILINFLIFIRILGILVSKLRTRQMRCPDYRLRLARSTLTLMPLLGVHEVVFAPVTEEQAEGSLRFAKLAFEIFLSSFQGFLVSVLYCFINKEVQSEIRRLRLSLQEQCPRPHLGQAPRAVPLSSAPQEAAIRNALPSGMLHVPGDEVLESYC
Method: as §1, §2, §3, §4, §5, §6, §7, §8

[7] = batch 1 unless a batch is given, read-out: cAMP activity hGLP1r (EC50)
[8] = batch 1 unless a batch is given, read-out: cAMP activity hGIPr (EC50)
[9] = batch 1 unless a batch is given, read-out: cAMP activity hGCGr (EC50)
[10] = read-out: cAMP activity mGLP1r (EC50)
[11] = read-out: cAMP activity mGIPr (EC50)
[12] = read-out: cAMP activity rGLP1r (EC50)
[13] = read-out: cAMP activity rGIPr (EC50)
[14] = Batch 1, read-out: hGLP1r cAMP activity EC50
[15] = Batch 1, read-out: hGIPr cAMP activity EC50
[16] = Batch 1, read-out: hGCGr cAMP activity EC50
[17] = Batch 1, read-out: mGLP1r cAMP activity EC50
[18] = Batch 1, read-out: mGIPr cAMP activity EC50
[19] = Batch 1, read-out: rGLP1r cAMP activity EC50
[20] = Batch 1, read-out: rGIPr cAMP activity EC50

T3 sequence (P47871 26-477): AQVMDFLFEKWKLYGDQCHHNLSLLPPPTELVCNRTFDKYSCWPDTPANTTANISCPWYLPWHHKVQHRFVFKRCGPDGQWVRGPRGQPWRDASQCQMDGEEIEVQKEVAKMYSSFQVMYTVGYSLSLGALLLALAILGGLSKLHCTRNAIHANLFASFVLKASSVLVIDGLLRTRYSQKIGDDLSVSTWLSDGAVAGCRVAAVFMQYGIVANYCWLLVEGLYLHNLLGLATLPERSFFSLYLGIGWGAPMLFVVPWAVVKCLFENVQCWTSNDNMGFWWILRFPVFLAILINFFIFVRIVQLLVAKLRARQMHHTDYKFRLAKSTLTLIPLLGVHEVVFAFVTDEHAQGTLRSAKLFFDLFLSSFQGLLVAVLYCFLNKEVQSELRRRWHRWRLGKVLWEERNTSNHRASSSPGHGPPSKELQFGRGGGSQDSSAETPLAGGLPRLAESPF
T1 sequence (P43220 24-463): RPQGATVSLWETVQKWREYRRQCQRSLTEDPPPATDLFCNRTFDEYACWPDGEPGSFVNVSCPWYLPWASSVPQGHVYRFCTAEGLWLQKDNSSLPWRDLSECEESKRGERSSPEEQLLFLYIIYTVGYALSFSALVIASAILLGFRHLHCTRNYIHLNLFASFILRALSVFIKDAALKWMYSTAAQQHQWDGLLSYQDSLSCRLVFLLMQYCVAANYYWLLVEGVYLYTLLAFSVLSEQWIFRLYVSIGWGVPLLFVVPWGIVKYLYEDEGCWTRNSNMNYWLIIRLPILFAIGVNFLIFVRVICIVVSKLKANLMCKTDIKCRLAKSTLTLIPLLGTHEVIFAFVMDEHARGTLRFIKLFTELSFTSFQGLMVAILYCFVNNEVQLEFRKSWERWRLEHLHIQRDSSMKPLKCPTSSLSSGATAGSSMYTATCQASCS

Substance: IP275: Fc fusion, IgG1-TM, SEQ ID NO:332; agonist peptide YSEGTFTSDYSKLLEKEAQRLFIEWLLKGP (YSEGTFTSDYSKLLEKEAQRLFIEWLLKGPGGGGGSGGGGSGGGGSGGGGSATHTCPPC)
- EC50 [1, 7]: 0.92 nM
- EC50 [2, 8]: 0.0087 nM
- EC50 [3, 9]: 230 nM
- EC50 [4, 10]: 1.7 nM
- EC50 [5, 11]: 0.26 nM
- EC50 [6, 12]: 0.062 nM
- EC50 (rat GIP receptor (rGIPr); [13]): 0.014 nM

Substance: IP289: Fc fusion, IgG1-TM(ΔK), SEQ ID NO:342; agonist peptide YSEGTFTSDYSKLLEKEAERLFIEWLLKGP (YSEGTFTSDYSKLLEKEAERLFIEWLLKGPGGGGGSGGGGSGGGGSGGGGSATHTCPPC)
- EC50 [1, 7]: 3.4 nM
- EC50 [2, 8]: 0.01 nM
- EC50 [3, 9]: 240 nM
- EC50 [4, 10]: 6.8 nM
- EC50 [5, 11]: 0.44 nM
- EC50 [6, 12]: 0.23 nM
- EC50 (rat GIP receptor (rGIPr); [13]): 0.02 nM

Substance: IP299: Fc fusion, IgG1-TM(ΔK), SEQ ID NO:351; agonist peptide YSEGTFISDYSKLLEEEAVRDFVEWLKAGG (YSEGTFISDYSKLLEEEAVRDFVEWLKAGGGGGGGSGGGGSGGGGSGGGGSATHTCPPC)
- EC50 [1, 14]: > 3640 nM
- EC50 [2, 15]: 0.021 nM
- EC50 [3, 16]: 53 nM
- EC50 [4, 17]: > 3640 nM
- EC50 [5, 18]: 210 nM
- EC50 [6, 19]: 19 nM
- EC50 (rat GIP receptor (rGIPr); [20]): 0.11 nM

Substance: IP302 (YSEGTFISDYSIALAAAAQQDFVNWLLAGGGGGGGSGGGGSGGGGSGGGGSATHTCPPC)
- EC50 [1, 14]: 26 nM
- EC50 [2, 15]: 0.018 nM
- EC50 [3, 16]: 1200 nM
- EC50 [4, 17]: 93 nM
- EC50 [5, 18]: 0.083 nM
- EC50 [6, 19]: 7 nM
- EC50 (rat GIP receptor (rGIPr); [20]): 0.055 nM

Substance: IP305: Fc fusion, IgG1-TM(ΔK), SEQ ID NO:430; agonist peptide YSEGTFISDYSIALAAAAVRDFVNWLLAGG (YSEGTFISDYSIALAAAAVRDFVNWLLAGGGGGGGSGGGGSGGGGSGGGGSATHTCPPC)
- EC50 [1, 14]: 230 nM
- EC50 [2, 15]: 0.26 nM
- EC50 [3, 16]: ≥ 1100 nM
- EC50 [4, 17]: > 1130 nM
- EC50 [5, 18]: 3.2 nM
- EC50 [6, 19]: 47 nM
- EC50 (rat GIP receptor (rGIPr); [20]): 1.7 nM
